The supplement of paper PMC9170038

Assays:
MS2 coat protein [1] = test: apparent KD of MS2 coat protein, switch ON state; designed switch direction (-1 OFF switch, 1 ON switch): -1; higher = weaker reporter binding; conditions: FMN input: 0 or 200 uM; Eterna round: R93 (includes R88 designs)
Procedure, shortened: (§1)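 Designed RNA switches were transcribed on-chip from Illumina sequencing clusters and titrated with SNAP-549-labelled MS2 coat protein in twofold steps from 0.7 or 1.5 nM up to 3 µM. Each step lasted 0.8–1.5 h at first and 10–20 min by the end, in 100 mM Tris-HCl pH 7.5, 80 mM KCl and 4 mM MgCl2, without or with constant ligand. Apparent KD is the median, for each design, of fits to normalised cluster binding curves.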

MS2 coat protein [2] = test: apparent KD of MS2 coat protein, switch OFF state (with FMN for OFF switches, without FMN for ON switches); designed switch direction (-1 OFF switch, 1 ON switch): -1; higher = weaker reporter binding; conditions: FMN input: 0 or 200 uM; Eterna round: R93 (includes R88 designs)
Procedure, shortened: as §1

Sequence | apparent KD of MS2 coat protein (MS2 coat protein [1]) | apparent KD of MS2 coat protein (MS2 coat protein [2])
AAAAAGUCAGGAUAUGUACGAAAAAAUAAAAAAAUAAAAGUACAGAAGGGACAUGAGGAUCACCCAUGUCAGGG [EX4 393: Minimal 5] | 67.5 nM | 118 nM
AGAUAGUCAGGAUAUACGAAAAUGUAAAAAGAAGUGAAGGGACAUGAGGAUCACCCAUGUAGAAGGGACUAGAA [74%, Web mod - With 5 less C's] | 100 nM | 86.6 nM
AAGGGACAUGAGGAUCACCCAUGUUAGGAUAUGCUAUGGAAAAUAAAAAUAAAACAUAGCAGAAGGAACAAAAA [Denovo 8] | 39.2 nM | 61.8 nM
AAAAAACAUGAGGAUCACCCAUGUGAGGAUAUGCAAAACCCAAAUAAAAAGAGAAAAAGCAGAAGGCACAAAAA [wbt round 1 mod 2] | 23.5 nM | 30.3 nM
AAACAACAUGAGGAUCACCCAUGUCAGGAUAUGAACGAAAAUAAAUAAAAAUAAAAGUUCAGAAGGGACGAAAA [66%, Wbt, 16] | 31.6 nM | 49.7 nM
AAGAAGUCAGGAUAUGCUGCUCGUCACGAAAGUGAUGAGUAGCAGAAGGGACAUGAGGAUCACCCAUGUAAAGA [Exclusion 4.1 (Exclusion4-cac2 - the real original)] | 55.2 nM | 66.6 nM
AAAAAACAUGAGGAUCACCCAUGUAAGGAUAUGCAAAACCCAUAUAAAAAGGGAAAAAGCAGAAGGUGCAAAAA [wbt round 1 mod 5] | 23.7 nM | 33.2 nM
AAAAAGGCAGGAUAUACGAACAUGUCGAAAGACGUGAAGGGACAUGAGGAUCACCCAUGUAGAAGGGUCAAGAA [Mat - Exclusion 2 - JL mod - D76] | 90.8 nM | 91.9 nM
AGCAAGUAAGGAUAUGCGAAGUCAGGACACACACUGACAAAGCAGAAGGUACAUGAGGAUCACCCAUGUAAGCA [Mat - Exaclusion 4 - Eli mod - D62] | 21.8 nM | 14.9 nM
ACAGUUACAGGAUAUACAUGGGAAAAUAAAAAUAAAAAACUACAUGAGGAUCACCCAUGUAGAAGGGUAACUGA [Ex2 Design 198: Random 13] | 77.5 nM | 26.6 nM
GUGUACAGAGGAUAUACAUAAGCAUGGAAACAUGCAAGAUCACAUGAGGAUCACCCAUGUAGAAGGCUGUACAC [Ex2: 738] | 342 nM | 180 nM
AAAAAGUGAGGAUAUACGCUGAGGAGUAGACACAACCAGGCGUAGAAGGCACAUGAGGAUCACCCAUGUCCAAA [EX4 Malc#11] | 26.1 nM | 39.8 nM
AAAAGGUGAGGAUAUUCGAAAAUAAAAGAAAAUAAAAGAAAGAAGAAGGCACAUGAGGAUCACCCAUGUAAUAA [LROPPY Exclusion 4 - v02_deltaG=2.94 break up the As mixed] | 30.1 nM | 27 nM
UCCAGACAUGAGGAUCACCCAUGUCAGGAUAUCUAGAAAACCUCAUGUAAAAAAAACUAGAGAAGGGAUAUGAA [Design 96: Pseudoknot F] | 19.6 nM | 15.7 nM
AGGAAACAUGAGGAUCACCCAUGUGAGGAUAUUCAAAAGAAAAGAAAAGAAAGAAGAAGAAGAAGGUACAAGAA [Neferefre] | 28.3 nM | 29.9 nM
AAAAAACAUGAGGAUCACCCAUGUGAGGAUAUGAUGCGAAUAAAGAAAGAAGAAAGCAUCAGAAGGCACACCUA [Disincluded 3 (MS2 Riboswitches)] | 26.3 nM | 59.9 nM
AAAAAGAGAGGAUAUACAUGAGGAUCACCCAUGUGACAUUAAAUAAAUAAAAUAAAAUGUAGAAGGCUCAAAAA [65%, Moding Exclusion3-cac2, 22] | 38.6 nM | 171 nM
AUGUAGGUAGGAUAUGCAUAGAUACAGAUUCAUGUGGAACUACAUGAGGAUCACCCAUGUAGAAGGACCUAAAA [Mat - Same state - Mayanna Mod - D126] | 20.2 nM | 30 nM
CUCUUGUGAGGAUAUCCAAGAAAAGAAAAGAAAGAAAAGAAGGAGAAGGCACAUGAGGAUCACCCAUGUAAGAA [EteRNA is fun!] | 38.6 nM | 38.9 nM
AAAGGAUCAGGAUAUGUGUGGAAAAAGUGUAUCCAAAAAAAACAUGAGGAUCACCCAUGUAGAAGGGAUCCAAA [Mod 2 of Normal (20/19) by Nando, Round 1] | 177 nM | 441 nM

Sequence | apparent KD of MS2 coat protein (MS2 coat protein [1]) | apparent KD of MS2 coat protein (MS2 coat protein [2])
GAAAAGUCAGGAUAUACAGAUAAAAAAACGAAAAAAAAUCUGUAGAAGGGACAUGAGGAUCACCCAUGUAAAAG [Mat - Exclusion 4 - Mayanna - D101] | 47.3 nM | 33.2 nM
GAAAAACAUGAGGAUCACCCAUGUCAGGAUAUACAAAAUAAAAUAAAAAUAAAAUAAAGUAGAAGGGACAAAAG [Mat - Same state - Mayanna Mod - D107] | 36.7 nM | 49 nM
AAGAAGCAAGGAUAUACAUGAGGAUCACCCAUGUAAAAGAAAGAGAAGGGAAAGAAAAGUAGAAGGUGCGAAAA [Ruby 71] | 20.2 nM | 23.7 nM
GAAACUAGAGGAUAUACGUACAUGUCAAAAGACGUGAAGGGACAUGAGGAUCACCCAUGUAGAAGGCUAGAAAG [Mat - Exclusion 2 - JL mod - D98] | 47.8 nM | 54.2 nM
AAAACUGGAGGAUAUACAUGAGGAUCACCCAUGUGUGGGUAGACUGUGUCGGCGUCAGGUAGAAGGCCACAAAA [Gilly Gone Silly 31 - Jieux - Exclusion 3] | 185 nM | 167 nM
GGAAAGUAAGGAUAUGCGAACAAACAAACAAACAAAAGGGAACAUGAGGAUCACCCAUGUAGAAGGUGCAAACA [Exclusion 2 Three redone] | 46 nM | 32.6 nM
CUAAAGCGAGGAUAUACAAUAAAAGGGAAUAAGGGAAAAAAACAUGAGGAUCACCCAUGUAGAAGGCGCCGAAA [Ex 2 #1] | 25.6 nM | 26.5 nM
AGGGUACAUGAGGAUCACCCAUGUUAGGAUAUACAAAAGAAAAGAAAAGAAAGAAGAAGUAGAAGGGACAAGAA [Teti] | 45.5 nM | 59.1 nM
AAGAACCAAGGAUAUACAUGAGGAUCACCCAUGUAAAAGAAAGAGGGAAAAGAGAAAAGUAGAAGGUGGAAGAA [Ptolemy VI Philometor] | 27.5 nM | 32.1 nM
AACAGUACAGGAUAUACAUGAGGAUCACCCAUGUGAGAGGAAUAAAACAAAAAUAAAAGUAGAAGGGUACUGGA [Ruby 45] | 35 nM | 106 nM
CUCGUGUUAGGAUAUGGAUAGCCGUUUGACGAGCGAGGGCACUAGAAGGAACAUGAGGAUCACCCAUGUAAAAA [Velema] | 29.4 nM | 28.1 nM
GUGUACAGAGGAUAUAUAUGAGCUAGGAAACUAGCAAGAUCACAUGAGGAUCACCCAUGUAGAAGGCUGUACAC [Ex2: 735] | 108 nM | 796 nM
AAAAAGGCAGGAUAUACAAAAAAAUUUUUAAAAAAAAAAAAACAUGAGGAUCACCCAUGUAGAAGGGCCAAAAA [Ex 2.1] | 52 nM | 43.3 nM
GAAAAGUGAGGAUAUGUCAAAAGUCACAAAAGUGACAAAAGACAGAAGGCACAUGAGGAUCACCCAUGUGGAAA [Mat - Exaclusion 4 - Eli mod - D51] | 30.9 nM | 38.4 nM
GUAAACCUAGGAUAUACAUGAGGAUCACCCAUGUAAAAAUUAAUAAAAAGAAAAACAAGUAGAAGGAGGUAGAU [JR_Exc003_Sub1225] | 19.6 nM | 20.8 nM
CUCUUGUGAGGAUAUUCAAGAAAAGAAGAGAAAGAAAAGAAGAAGAAGGCACAUGAGGAUCACCCAUGUAAGAA [EteRNA is fun!] | 25 nM | 30.8 nM
AAAAAGGCAGGAUAUACAUGAGGAUCACCCAUGUAAAGAAAGAAAGAGGUGAAAGAAAGUAGAAGGGCCAAAAA [Ex3 sub 2] | 92.9 nM | 72 nM
CUCAAGUAAGGAUAUACAAGAAAAGAAGAGAAAGAAAAGAAGUAGAAGGUACAUGAGGAUCACCCAUGUAAGAA [EteRNA is fun!] | 26.7 nM | 22.2 nM
AAAAAAAAAGGAUAUACAGGAGGUAAGGUCGGACAAAAAAAACAUGAGGAUCACCCAUGUAGAAGGUUUAAAAA [Excls2-IX] | 34.5 nM | 19.8 nM
